US20240383992A1 (ORICELL THERAPEUTICS, published 2024)
Residue numbers refer to the chain shown, from its start.

B1: hBCMA-17 CAR (other)
chain: EIVLTQSPATLSLSPGERATLSCRASESVSVSGIHLLHWYQQKPGQAPRLLIYLGRNRAAGIPARFSGSGSGTDFTLTISSLEPEDAAIYYCLQSRRFPRHFGQGTKLEIKGSTSGSGKPGSGEGSTKGQVQLVQSGAEVKKPGASVKVSCKASGYTFADYTINWVRQATGQGLEWMGWINTETREPTYAYDFRSRFTFTLNTSISTAYLELSSLRSEDTAVYYCARDIRYVMDYWGQGTLVTVSSTTTPAPRPPTPAPTIASQPLSLRPEACRPAAGGAVHTRGLDFACDIYIWAPLAGTCGVLLLSLVITLYCKRGRKKLLYIFKQPFMRPVQTTQEEDGCSCRFPEEEEGGCELRVKFSRSADAPAYQQGQNQLYNELNLGRREEYDVLDKRRGRDPEMGGKPRRKNPQEGLYNELQKDKMAEAYSEIGMKGERRRGKGHDGLYQGLSTATKDTYDALHMQALPPR
B2: hBCMA-19 CAR (other)
chain: B1 chain with S32P, H35S, L36F, L37I, T188A, S195G
B3: hBCMA-20 CAR (other)
chain: B1 chain with S32P, H35S, L36F, L37I
B4: hBCMA-22 CAR (other)
chain: B1 chain with S32P, H35S, L36F, L37I, R56S, A59P, A60S, T188A, S195G
B5: hBCMA-23 CAR (other)
chain: B1 chain with S32P, H35S, L36F, L37I, R56S, A59P, A60S

target: T1, BCMA expressed on MM1s cells (UniProt Q02223 1-184, limits assumed); assay: cell-based or functional assay
T1 sequence (looked up): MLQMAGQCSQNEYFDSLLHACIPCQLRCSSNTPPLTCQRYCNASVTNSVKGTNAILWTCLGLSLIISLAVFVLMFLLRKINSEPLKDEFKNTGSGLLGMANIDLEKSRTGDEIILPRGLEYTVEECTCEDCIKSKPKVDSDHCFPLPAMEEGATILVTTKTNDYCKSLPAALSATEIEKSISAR

Binder | killing toxicity against the target cell at effector-to-target ratio 1:1 | killing toxicity against the target cell at effector-to-target ratio 3:1
B1 | > 20% | > 70%
B2 | > 20% | > 70%
B3 | > 20% | > 70%
B4 | > 20% | > 70%
B5 | > 20% | > 70%
